We go through one substance from PMC2791397.

The target of this assay is GST-Hmt1p (S. cerevisiae) (UniProt P38074).
Sequence of GST-Hmt1p (S. cerevisiae) (P38074 whole entry): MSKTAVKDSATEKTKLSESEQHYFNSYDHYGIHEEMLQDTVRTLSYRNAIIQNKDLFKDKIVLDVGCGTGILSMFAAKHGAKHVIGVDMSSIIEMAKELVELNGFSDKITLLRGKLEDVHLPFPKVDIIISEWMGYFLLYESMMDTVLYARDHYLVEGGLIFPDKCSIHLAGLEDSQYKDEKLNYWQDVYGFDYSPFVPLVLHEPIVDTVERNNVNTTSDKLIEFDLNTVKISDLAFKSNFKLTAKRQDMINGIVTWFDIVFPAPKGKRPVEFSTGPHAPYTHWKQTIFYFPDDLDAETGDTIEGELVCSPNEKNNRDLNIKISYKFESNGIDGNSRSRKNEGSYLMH

With “synthetic histone H4 peptide (residues 1-18) with acetyllysine at position 8 (from UniProt P02309 2-19)”, the KM of Hmt1p-catalysed methylation of the H4 peptide (3H-SAM, Hanes/Wolffe plot) turned out to be 0.059 µM.
